Measured values as given in a protein production outcome set (Wang et al. 2014).

Test: label from the status in PepcDB records

| Sequence | protein production |
| --- | --- |
| MTLTQLEIFALVAEMQGFTAAAARLGISQSGVSHAVRELERELGVELLQRRQGRVELTDIGRQLLPRASGMLGLAEAMRQEAADARGLRRGTLRIGSFGPTSSMRLLPALLARYRQQYPGIEVHIDEGPDEQVLQWLLERRVDIAFAVLPDPRFVCCPLVEDQMVAVLPAGHRLADRPRVTLAELCGEPFALSGAGSAELVMRLFQAARLQPNIRYRCGQLLSTLDTVARGDAVAIVAELSLPSRPHAEGYVGKPLQPAVRRQVGLALLDGDQASPAARAFLQIADRLRIEGGLAGLNARENGAA | not failed |
| MTLVDDRLLESKMTKVEQARAWSPRVISKFETLIKSADDHSLYRVNPLAFARDRAIAEAEAIDLFLHAARCGLFDMSWDVLCPQSGMVLDSFGALRTLKTHYVCGLCDVSGDTDLDDFIEVTFSVSPKLRRLPYHDPETLPVEDFHWKLHFGHDGRLPGQDVRFLDVLRGFVRGMTFLPPGTTTVLRADLGPGALSGVNVQTQAAFAVPISGDRGLAPTLLKIDYDGKRFLPAMPAVPPGPIVIEVANRGPVRGSLLVINWPPELVALTTKPTLDFDPYVSGGALLARQTFRQLFRSERVDEKEGLGIRQITFLFTDLKGSTAMYERLGDLNAYALVREHFALVNAAVQQHSGAVVKTIGDAVMAVFSQPSDAISAALHVFEEIDRFNGDHDGPGIILKIGAHCGPSIAVTLNDNLDYFGQTVNVAARVQSLAEAGQICISEALYSAPGVREMLAGHRVVAFDAPLRGVQGDATVYRIMRE | failed |
| MTMETVESQHDGSITASLTESKSAHVQTQTGQNSIPALAQVAAIAETDESAESGGVIDSHKRREILSRRPSYRKILNELSSDVPGVPKIEEERSEEEGTPPSIATMAVPTSIYQTSTGQYIAIAQGGTIQISNPGSDGVQGLQALTMTNSGAPPPGATIVQYAAQSADGTQQFFVPGSQVVVQAATGDMPTYQIRAPTAALPQGVVMAASPGSLHSPQQLAEEATRKRELRLMKNREAAKECRRRKKE | not failed |
| MTMFGKIFSKKTPKTDIKSNGEALNASEIEQFIKDTLSHYISDNFPQGVLAVCQQLSITQKKKITIKLLMPFVCQGELDLLAQTLSENLARTVNFEIDLAIKPVRQFSLGNDKNKAGQEGMLQGKVANIIAIASGKGGVGKSTTTVNLAYALMCEGARVGILDADIYGPSIPSMLGLKNEKPSSSDGKLMTPVDAKGLSAMSIGFLVDEADATVWRGPMASSAFNQLLNETDWPELDYLLIDMPPGTGDIQLTLAQKVPVAAAVIVTTPQDIALIDAVKGIAMFDKVKVPVLGIVENMSYHLCENCGHKSHIFGEAGGEHMAEDHETKLLGQLPLDITIRQDADFGESDIIENSAGEIANHYRKIARNVSAQLFLQCDTASPLTATVAHKALEHHHHHH | not failed |
| MTMQDILYYIHTYGLIVLFLIVVGEYCVPAMPTGIVMPAAGIIAGQAHKGIIKVMLISLIAGLVGSIILYLLGYFVGSTLLEKIKIKHPKIEDKLEKTEKILEKHSFLGIFICRLIPIIRTYVSLICGTVKVNFFKFIIFSIPGIFCWNFTGIVVGYFFGGKIRF | failed |
| MTMREYMLGNVAIARGLLEGGVQVIAGYPGTPSSEIIDTLASREDRDYHIEWSVNEKVAMEVAVGAAWTGVRSVVTMKHVGLNVAADPFMTLAYAGTKGGLIAIVADDPSCHSSQNEQDTRRYAQFALVPCFDPSTPQEAKDMLPYAFEFSEKFEIPVIFRPTTRISHGKSDIELGEIPAEKAVPHFEKLLDRWVMLPKNARPRHTHILSIQQAMEDELAESPWNSLEIKPGAKMGVIGSGIASVYAKEALQELGLEASFLKIGTYPVPKKLILELLSTVDTVLIFEELEPVVEEQVRILAQEAGLEVSVLGKEGGFVSREGELDVSAFLEALRKAFDLDIEPDSGKVPLELAPRPPSLCAGCSHRATFYSMKKVFGKDAIYPSDIGCYTLGIQSGTVETTLCMGSSISIASGLYHAGEKRPICCSIGDSTFFHTGMNSLLNAVFNKANITVTILDNRITAMTGHQPNPGVGFTVTGEPTVEVSLAELCKAMGAGFVTVVDPYNLEETQEAFKAAKEFEGTAVVIAKQPCVISGKRAGIKRVPYIVDPEKCEGCKQCVKFGCPAIEFDEENKCAVITSLCSGCGVCAQICKFDAIREVKR | failed |
| MTNAEAVTVTNKQIIFPDYVTGFPKESDLKITTTTIDLRLPEGSTSVLVKNLYLSCDPYMRICMGKPDPLSSSLVPPYKTGVPIIGLGVSKVIDSGHPDYKKGDLLWGLVGWEEYSVITLTTYSHFKIEHTDVPLSYYTGLLGMPGMTAYAGFYEVCSPKKGETVFVSAASGAVGQLVGQFAKLMGCYVVGSAGSKEKVYLLKTKFGFDDAFNYKEEKDFSAALKRYFPEGIDIYFENVGGKMLDAVLINMKLHGRVAVCGMISQYNLVDPEGVHNLPTILYKRIQLQGFGVCDFYDKYPKFLDFVLPYIREGKITYVEDIAEGFESGPSALLGLFEGKNVGKQLFVVARE | failed |
| MTNAISNFTIYAFVALGGACGASLRFYISQLVLNWLGKGFPFATLMVNIIGSFTMGLLYQLIEHEILNVSVHRTLIGIGFLGAFTTFSTFSLDSLLLLQQGDVLKAAINILLNVSLCIAAAALGMFMVTTLTK | failed |
| MTNFTQSINFPGSLPLTRNLLAAACFFAMTQASAAGFISDVKQISDQEVRSGEGYYRADGKWLVYQAEVAGENPFYQIYLKNIASGEVQQVSPGIGKTTCSWVHPIQEKVLFSSTHEDPEAKAKMTTEIEQRKSGQRRSYAWDYDEFYDIYETDFAGGNIRNLTHTKGYDAEASWSPDGRLIAFASNRRAYSEPLSEAETVLFSNDPSSMIDIYIMDADGSNVKRLTHTNSYDGGPFFSPDGKRIVWRRFSENGQEAEIFTMNTDGSDQKQITRLNKMSWAPFYHPSNQYIIFATNVHGHRNFELYIVDIDGKKEPVRVTDEEGFDGLPVFTPDGQYITWTSDRTPDHKGRLFHGKWDHKKALESLGLE | failed |
| MTNHQHPQTTTQWIDLIANSELPAITSTARMLDKFSNDDKSSLPKLSEAILHDQGLSSCLLKVANNIQHISINKVTTVSRASVVLGIQSVKNICLTAKLVSSLLASKSLDINVYEQLTQLMANSFYAGMLAKMMVPNYSEEIQEEVYLAAMLYRIGESAFWSAGGDVAKKLANYEAKSPQDFNQYCRKEMGTNFSELSKGLAGTWNLSDLLIKALDQPTTRTDEVKVIYFADKLSAIIAKPEGCEEDYHKLLKEIAYIVGISVRQLTVRIEHTREQAEKLLSSYGAEILTERINSLPTAEDFKSLGGDFDTREVVSKDKALLNGFMKLTKLIQNSKDFNEYLQLTLESLALTFAFDRSSFLMLVDDRARVKSRLVVNKNAQDDASKINIDIKHSDNVIARVISTDTAALINDHQEIRWRDLVTEEISEVIVEGAIAFVPVKIGGKAIGVICLQLLSPDQKIETQDFQQICAFIDHLNMCLTMIKYS | failed |
| MTNITPEAKNTNRHSVLLVEKEGRNLARKYHQVLVEELTIIKQGYKTFSSKNIAIPSGFWYHYDTSLTDSYENAKSECFYIPNDNQNYPLQEMRRDCKEYERVEKQVVFKNNKNNELNELPKYLNNAKKY | failed |
| MTNLEAKENNLIKDLASKQRVAIAYSGGIDSTYLLKVAVDELGKDNVLAMVVNSELFLDDEYNKALELAKDLGANAMGVSMSELADERIAANTPESWYYSKQLLYRTIKKAAAEKGFDIVLDGMIMDDNADFRPGMKARTEEGIVSSLQDADLYKSEIRELAKDRGISNWNKVASC | not failed |
| MTNMKTHAREWAALDKSACFLFCSGDNDVAQQLGHAIGDLGLLTQELPEPEQLARRLADIDPQVVFLDFTGGQADPGKLLLAADLARVLARVAPAVPRVAVGYLAQPDGAIAALRAGVSDFVDPSVSPDEVHGVVQRLVSNRRIGGGSGGEHRSVLILGARPGVGASTLAVHMAGLTQERMAQAALARQGAVAGKPARSAEVMAAQLPLSDRVGVLDLGWPIGDCLLYLNISSDFDFAEAARNLSRLDGTLLNSAMAHTASGVSALALPREVEQVRALSPNDSLLLFERLRQHYGTLVTDAGGLANPEFVAKLARASHETWLVTDQSVSALVSLAGAVQELEQFHVEKSALRLVVNRYDERYGMSAAQIAERFGLELAGTLPDRTLSLMVCTNQGRLLHEQAERDIYVRAVQTLVDRLLAGSEAPRARHNSWLANWLPGVHRLTNVVESLEHHHHHH | failed |
| MTNNEYTDISNKETDVSPANIEQLKSVSMIWFVPFVALLIGAWMIYYQLSNEGPVITIAFDSAEGMEIGKTKIKSYNVDIGEVSNIVLNENADGVIVTARMTKNAEKLLNKNSDFWLVSPEISHTGISGLSTLISGVYIEFYPSSIHEEEVDELTSEFIALKDPPVTPPGAPGLHLTLNSNDQFAYSKGDPIIYKGLTVGQFEHIHFNFEERVVYYNAFIKAPYHQLVTTNTKFWDVSGLRMDLTADGLSIQTGNIETMLTNGVTFDVPKGMENGEEITERSYFDIYANYKEADDERYKYSVEYIVLVSNTIRGLSVGAPVEYRGVLIGHVKSINLLAQRNSDRPQIFDEDIKIPILISLQPGRVGLPDNEMGVSLMKQQHQLWIKDGLRASLKTGSLLTGSLFIDFQHYSDLNNEEENTQRTDFENSQYGEYTIIPSVDDEFSQITAKASQFIDNLNALPLEKISGNTNELITEFTQTAKSFQSVSDNLSGVLDGVNQQQLTQELKTTLQSYTKLSKDLSAGSKGYEDLRQTLSALTKVMNELQPLLNQLKHQPNGLIFESGKVDAIEPKKYTPNKKAE | failed |
| MTNTTYVQEYHAIVEVLSKYNEGGKKADSTIMRPAFSSQATIFGVDVDNKLTGGPIQGLFDVIDNVFHPSPEAKAAIARIDIVGTAASARIDTDDISGFRFTDFFNLLKVEGKWTVVSKIYHTHPSA | not failed |
| MTNVISYNNDKGLLAYIQFLADRALKPSNGNTDPVFDFEDALDQTEMAQLAVDELKKIPEVNTLFAERWLPAPFNLDDLAKLPEGTLGHVYAIEMKARGFDPYFYKKVPVVDDISYLKMLWRSTHDIYHVVAGFDTDGIGEIGLQAFVLAQTPIPISVMLVSFGMVMTSLYQPAKFQDLMAEIARGYSLGSHTPRKLIAQKWDQFWDVPVIEIRECLGMNTVKQRERA | failed |
| MTPDDQLSAFLGEQPATSRADLFTAVVMQKIERRAFLRDVAAAGGWAAVVGLVAWACAPVLNVLIGALAPGLAPAAAALALVAATLLVSSPSVRRRLGLAAV | failed |
| MTPDRKGDGGPSPLGDLKDALGGYLSAAGHGLVGRAGDRLGSLTDRLTESADGGGANGGTGGSEPGTGGSRSGSDGSKSGSGGSKSGSGGSKSGGSVKATHIMETVDIGVPLRTVYDQWTQLQDFSDFTKGVQSVSPHDETTSDWTAKIAFSTRSWKATVQEQIPDQRIVWTSEGAKGSTNGVVTFHELAPRLTRVVVVVEYYPAGFFEKTGNLWRAQGRRLRLDLKHFARHVTMTDAEEIEGWRGEIRDGEVVKSHEEALEEDEDAADEYEDDEEGEYDEEESDGEVPDGEEEPYADEDDGEYENDDAYEADDEDDERARPRR | failed |
| MTPEPDGPEDRLRRFATIWSRAVFPVTSTPLTRPELENRLLPLARRLSEALRARAFDAAEAKAVGAALIDAHCTDPDALSATLDCVDAYLVLYCGTPDASPGDQEALRTRASRLQHAMAAGFAQALRERTLAEQEAISVAALQAQGVVGQALHASEARFRAVFEGAAIGIGIADLEGNILQINGALLRMFGGSEQAVRGRNVTDWTHPDDAPQVWRLYEELVRGEREHYHVEKAFYRPDGTVLWTNLTVSLLRDADGRPEYQLALMEDTTERRLLNLRLRYEATHDALTGLPNRTLFFERLEKALSAGGGQRFGLCYLDLDGFKTINDSLGHAAGDRLLVEVADRLQSCATAPGEMVARLGGDEFVALTTGPDTEREVDELAGRIMNALVTPISIDGRELAVRGSIGIVEGPAGERGPAEVLRSADITMYRAKSAGGNRFELADPEADARAITRHGLTTALPAALDRNEFFIEYQPLVHLGDGSVRGAEALVRWLHPQHGVLGPDRFIPLAEHTGLIVPLGRWVLEQSVRQAREWQERHCAEAAAPLRINVNLSPCQLTHPGLVSDTVDILERSGLEPGALCLEVTESALIGADDDLLKPLRRLAEMGVDIALDDFGTGYSNLANLRRLPVSILKLDRSFTQGMQQYPADPVDLKIVEGIVTLAHSLDLAVTVEGVETGAQAEQLRILGCDTAQGWYYARPGPPERLHELALVDATG | failed |
